Data from publication PMC11638594 (Molecular Therapy. Methods & Clinical Development, 2024).

Target: AAV8 capsid (adeno-associated virus serotype 8) (adeno-associated virus 8, UniProt Q8JQF8)
Test: cryo-EM structure

B1: AAVX nanobody (CaptureSelect Biotin Anti-AAVX Conjugate; ligand of the POROS CaptureSelect AAVX affinity resin) (VHH)
VHH: QVQIQESGGGIVQAGGSLRLSCAASGRTHGMYAMGWFRQAPGKEREFVAVQDITASNTHYSSAVKGRFTLSRDNAKNTAYLQMNNLKPEDTAVYYCAAGPTLMSGSYNSARDYDYWGQGTQVTVSS
stoichiometry N: 2 nanobodies per 5-fold
